Test results as given in the supplement of paper PMC9876800.

Test system: peptide library, one residue held at a place counted from the S/T acceptor
Assay: relative phosphorylation of the sub-library (ratio to the mean residue at this position); higher = residue favoured
Settings: human
How it was run: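 Relative sub-library phosphorylation is the ratio of each sub-library's signal to the mean residue at that position. The signal came from phosphorimaging of spots on streptavidin membranes, quantified by densitometry, after purified recombinant kinases reacted with biotinylated degenerate peptide sub-libraries in 384-well plates. Reactions held 50 μM peptide and 50 μM ATP spiked with γ-32P-ATP for 90 min under kinase-specific conditions.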

Chain of HIPK1, construct: aa158-555 (Q86Z02 158-555, looked up): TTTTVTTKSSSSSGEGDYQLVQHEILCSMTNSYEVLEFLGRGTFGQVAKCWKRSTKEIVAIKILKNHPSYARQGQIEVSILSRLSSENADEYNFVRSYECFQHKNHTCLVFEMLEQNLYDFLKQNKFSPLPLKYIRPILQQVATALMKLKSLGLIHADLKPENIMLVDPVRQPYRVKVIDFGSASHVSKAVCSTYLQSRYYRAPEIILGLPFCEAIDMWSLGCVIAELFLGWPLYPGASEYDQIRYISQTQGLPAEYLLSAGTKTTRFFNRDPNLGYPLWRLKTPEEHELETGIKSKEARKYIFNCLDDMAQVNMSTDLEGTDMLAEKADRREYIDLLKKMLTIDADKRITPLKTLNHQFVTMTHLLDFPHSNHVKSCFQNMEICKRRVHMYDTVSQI
Chain of GSK3A, construct: Full length (P49840 whole entry, looked up): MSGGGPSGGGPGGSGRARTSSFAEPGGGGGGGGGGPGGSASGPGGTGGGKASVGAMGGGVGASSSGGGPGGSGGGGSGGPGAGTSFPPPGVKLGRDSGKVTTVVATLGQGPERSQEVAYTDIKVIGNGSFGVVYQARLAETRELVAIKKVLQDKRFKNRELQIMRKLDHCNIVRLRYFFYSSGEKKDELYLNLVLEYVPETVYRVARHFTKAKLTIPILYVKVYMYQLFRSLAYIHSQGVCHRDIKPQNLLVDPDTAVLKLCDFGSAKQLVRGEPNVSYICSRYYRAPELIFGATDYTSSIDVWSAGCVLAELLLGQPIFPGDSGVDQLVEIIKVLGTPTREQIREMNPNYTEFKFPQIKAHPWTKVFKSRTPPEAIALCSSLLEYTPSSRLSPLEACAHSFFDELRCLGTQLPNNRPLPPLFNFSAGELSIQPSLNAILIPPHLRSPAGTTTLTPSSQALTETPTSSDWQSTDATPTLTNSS

DYRK2, construct: Full length (from UniProt Q92630)
relative phosphorylation
Settings | at +1 | at +2 | at +3 | at +4 | at -1 | at -2 | at -3 | at -4 | at -5
A fixed | 0.832 | 1.06 | 0.927 | 0.956 | 1.27 | 2.04 | 0.9 | 0.971 | 1.08
D fixed | 0.164 | 1.08 | 0.82 | 1.14 | 0.655 | 0.308 | 0.592 | 0.84 | 0.894
E fixed | 0.214 | 0.977 | 0.792 | 0.8 | 0.788 | 0.307 | 0.529 | 0.922 | 0.857
F fixed | 0.209 | 0.977 | 0.929 | 1.23 | 0.7 | 0.518 | 0.457 | 0.843 | 1.03
G fixed | 0.62 | 0.756 | 1.59 | 1.17 | 1.17 | 0.984 | 1.78 | 1.05 | 1.16
H fixed | 0.227 | 0.923 | 0.915 | 0.967 | 0.948 | 0.562 | 0.796 | 0.894 | 1.14
I fixed | 0.368 | 1.26 | 0.8 | 0.996 | 0.702 | 0.897 | 0.571 | 0.843 | 0.833
K fixed | 0.357 | 0.502 | 0.548 | 0.832 | 1.12 | 0.495 | 0.756 | 0.859 | 0.859
L fixed | 0.307 | 1.45 | 1.1 | 0.987 | 0.823 | 0.98 | 0.635 | 0.861 | 0.878
M fixed | 0.314 | 1.48 | 1.05 | 1.22 | 1.16 | 0.915 | 0.608 | 0.969 | 0.843
N fixed | 0.304 | 1.08 | 0.838 | 0.928 | 0.877 | 0.781 | 0.691 | 0.771 | 0.846
P fixed | 9.47 | 0.703 | 2.79 | 1.16 | 1.68 | 2.97 | 0.988 | 1.26 | 0.99
Q fixed | 0.466 | 1.1 | 0.893 | 0.992 | 1.05 | 0.597 | 0.735 | 0.826 | 0.819
R fixed | 1.99 | 0.629 | 0.707 | 0.778 | 1.5 | 2.44 | 5.23 | 2.46 | 1.69
V fixed | 0.772 | 1.23 | 0.682 | 0.918 | 0.898 | 1.28 | 0.573 | 0.781 | 0.833
W fixed | 0.193 | 0.958 | 0.902 | 0.984 | 0.627 | 0.487 | 0.571 | 0.997 | 1.01
Y fixed | 0.195 | 0.829 | 0.72 | 0.932 | 1.04 | 0.444 | 0.588 | 0.853 | 1.24
pThr fixed | 0.399 | 1.77 | 0.745 | 1.28 | 0.415 | 0.56 | 0.647 | 1.03 | 1.03
pTyr fixed | 0.476 | 0.786 | 0.709 | 0.928 | 0.953 | 0.452 | 0.79 | 1.19 | 1.19

DYRK3, construct: Full length (from UniProt O43781)
relative phosphorylation
Settings | at +1 | at +2 | at +3 | at +4 | at -1 | at -2 | at -3 | at -4 | at -5
A fixed | 0.74 | 0.843 | 0.891 | 0.767 | 1.14 | 1.24 | 0.635 | 0.856 | 0.845
D fixed | 0.16 | 0.894 | 0.621 | 0.723 | 0.447 | 0.181 | 0.404 | 0.698 | 0.663
E fixed | 0.175 | 0.758 | 0.613 | 0.713 | 0.554 | 0.207 | 0.368 | 0.747 | 0.656
F fixed | 0.266 | 1.19 | 1.12 | 1.31 | 0.777 | 0.378 | 0.422 | 0.876 | 1.07
G fixed | 0.732 | 0.679 | 1.47 | 1.07 | 1.13 | 0.719 | 1.59 | 1.01 | 0.936
H fixed | 0.3 | 1.2 | 1.27 | 1.16 | 0.991 | 0.556 | 0.621 | 0.945 | 1.12
I fixed | 0.513 | 1.33 | 0.817 | 0.973 | 0.709 | 0.643 | 0.418 | 0.905 | 1.05
K fixed | 0.494 | 0.7 | 0.727 | 0.926 | 1.42 | 0.746 | 0.92 | 1.1 | 1.11
L fixed | 0.329 | 1.41 | 1.23 | 0.916 | 0.882 | 0.651 | 0.444 | 0.887 | 0.892
M fixed | 0.337 | 1.41 | 1.21 | 1.35 | 1.22 | 0.67 | 0.467 | 0.903 | 0.84
N fixed | 0.289 | 0.883 | 0.777 | 0.919 | 0.783 | 0.555 | 0.473 | 0.71 | 0.809
P fixed | 8.02 | 0.703 | 1.93 | 0.889 | 1.27 | 1.93 | 0.514 | 0.886 | 0.898
Q fixed | 0.442 | 0.889 | 0.834 | 0.932 | 1 | 0.583 | 0.518 | 0.688 | 0.742
R fixed | 2.71 | 1.05 | 1.09 | 1.13 | 2.12 | 6.5 | 7.91 | 3.23 | 2.49
V fixed | 0.987 | 1.1 | 0.661 | 0.785 | 0.726 | 0.724 | 0.357 | 0.664 | 0.716
W fixed | 0.257 | 0.91 | 0.887 | 1.38 | 0.64 | 0.386 | 0.473 | 0.964 | 0.942
Y fixed | 0.242 | 1.04 | 0.858 | 1.06 | 1.18 | 0.336 | 0.473 | 0.928 | 1.21
pThr fixed | 0.328 | 1.44 | 0.549 | 0.977 | 0.353 | 0.349 | 0.492 | 0.812 | 0.954
pTyr fixed | 0.363 | 0.759 | 0.769 | 0.815 | 0.735 | 0.287 | 0.542 | 0.74 | 1.15

GSK3A, construct: Full length (from UniProt P49840)
relative phosphorylation
Settings | at +1 | at +2 | at +3 | at +4 | at -1 | at -2 | at -3 | at -4 | at -5
A fixed | 0.877 | 0.899 | 0.742 | 0.852 | 1.1 | 1.42 | 1.14 | 1.28 | 1.14
D fixed | 0.815 | 1.25 | 1.32 | 1.25 | 1.15 | 1.14 | 1.36 | 1.39 | 1.36
E fixed | 0.758 | 0.904 | 2.08 | 3.03 | 1.09 | 0.906 | 1.26 | 1.4 | 1.05
F fixed | 0.673 | 0.931 | 0.889 | 0.752 | 0.598 | 0.686 | 0.525 | 0.686 | 0.903
G fixed | 1.19 | 0.957 | 1.02 | 0.825 | 1.47 | 1.38 | 2.61 | 1.43 | 0.995
H fixed | 0.771 | 1.04 | 0.935 | 0.772 | 0.927 | 0.741 | 0.668 | 0.915 | 0.983
I fixed | 0.564 | 0.621 | 0.679 | 0.788 | 0.506 | 0.719 | 0.507 | 0.661 | 0.727
K fixed | 1.18 | 1.33 | 0.933 | 1.14 | 1.3 | 1.02 | 0.824 | 1.06 | 1.16
L fixed | 0.552 | 0.772 | 0.803 | 0.862 | 0.61 | 0.638 | 0.536 | 0.715 | 0.811
M fixed | 0.607 | 0.883 | 0.812 | 0.864 | 0.691 | 0.662 | 0.604 | 0.747 | 0.739
N fixed | 1.05 | 1.38 | 1 | 0.922 | 1.28 | 1.25 | 1.21 | 1.13 | 0.974
P fixed | 3.8 | 0.825 | 0.899 | 0.728 | 1.5 | 2.02 | 1.65 | 1.42 | 1.31
Q fixed | 0.858 | 1.35 | 1.2 | 1.03 | 1.35 | 1 | 1.09 | 0.894 | 0.887
R fixed | 1.15 | 1.03 | 1.01 | 0.82 | 1.31 | 1.26 | 1.21 | 0.951 | 1.01
V fixed | 0.634 | 0.703 | 0.718 | 0.695 | 0.616 | 0.777 | 0.605 | 0.721 | 0.963
W fixed | 0.793 | 1.15 | 1.07 | 0.766 | 0.724 | 0.728 | 0.592 | 0.828 | 1.1
Y fixed | 0.725 | 0.979 | 0.873 | 0.908 | 0.77 | 0.653 | 0.614 | 0.772 | 0.882
pThr fixed | 0.876 | 0.928 | 3.67 | 62.8 | 0.866 | 1.11 | 1.06 | 1.82 | 1.07
pTyr fixed | 1.15 | 1.09 | 2.41 | 3.12 | 1.52 | 1.34 | 1.37 | 1.45 | 1.69

HIPK1, construct: aa158-555 (from UniProt Q86Z02)
relative phosphorylation
Settings | at +1 | at +2 | at +3 | at +4 | at -1 | at -2 | at -3 | at -4 | at -5
A fixed | 0.711 | 1.04 | 0.979 | 0.83 | 1.21 | 2.16 | 0.93 | 1 | 0.905
D fixed | 0.165 | 0.679 | 0.59 | 0.795 | 0.471 | 0.278 | 0.49 | 0.719 | 0.716
E fixed | 0.193 | 0.512 | 0.51 | 0.687 | 0.485 | 0.283 | 0.464 | 0.762 | 0.634
F fixed | 0.264 | 1.15 | 0.885 | 1.04 | 0.567 | 0.398 | 0.342 | 0.668 | 0.793
G fixed | 0.896 | 1.37 | 1.19 | 1.14 | 1.26 | 0.872 | 1.27 | 1.13 | 0.991
H fixed | 0.354 | 1.23 | 1.17 | 1.07 | 0.881 | 0.454 | 0.698 | 0.884 | 1.06
I fixed | 0.421 | 0.708 | 0.92 | 0.978 | 0.536 | 0.999 | 0.42 | 0.781 | 0.883
K fixed | 0.503 | 1.42 | 0.886 | 1.12 | 1.75 | 0.898 | 1.13 | 1.3 | 1.26
L fixed | 0.329 | 0.928 | 1.2 | 1 | 0.682 | 0.862 | 0.525 | 0.876 | 0.84
M fixed | 0.272 | 0.815 | 0.972 | 1.04 | 0.916 | 0.607 | 0.484 | 0.793 | 0.742
N fixed | 0.318 | 1.04 | 0.826 | 1.01 | 0.761 | 0.735 | 0.677 | 0.704 | 0.928
P fixed | 8.97 | 1.1 | 2.4 | 1.14 | 1.91 | 2.58 | 1.07 | 1.22 | 1.21
Q fixed | 0.399 | 0.888 | 0.885 | 0.981 | 0.967 | 0.605 | 0.71 | 0.856 | 0.89
R fixed | 1.85 | 1.55 | 1.06 | 1.13 | 2.49 | 3.33 | 6.49 | 3.08 | 2.25
V fixed | 0.793 | 0.755 | 0.863 | 0.954 | 0.645 | 1.17 | 0.47 | 0.706 | 0.794
W fixed | 0.284 | 0.966 | 0.886 | 1.16 | 0.673 | 0.389 | 0.426 | 0.784 | 0.825
Y fixed | 0.276 | 0.848 | 0.772 | 0.917 | 0.801 | 0.381 | 0.397 | 0.723 | 1.27
pThr fixed | 0.387 | 0.46 | 0.541 | 0.711 | 0.485 | 1.05 | 0.712 | 0.94 | 1.05
pTyr fixed | 0.453 | 0.444 | 0.772 | 0.757 | 0.599 | 0.431 | 0.644 | 0.648 | 1.04
